From US9913914B2, “Cell transport” (priority 2013, dated 2018)

How the values were obtained:
Type in all cases: cell-based, Dictyostelium discoideum
PTEN [1] = assay: Protein phosphorylation response to cyclic AMP in starving Dictyostelium cultures (antibody detection on SDS gels); settings: pretreated 1 hour, 10 micromolar
Description: FIG. 10. In starving Dictyostelium cultures, several proteins undergo rapid phosphorylation/dephosphorylation events in response to an applied dose of cyclic AMP. The strength of this response is limited by PTEN enzyme activity. This response is visualised with antibody detection of these phosphoproteins on SDS gels prepared from extracted cultures at the time points indicated after the cAMP dose.
In starving Dictyostelium cultures, several proteins undergo rapid phosphorylation/dephosphorylation events in response to an applied dose of cyclic AMP. The strength of this initial phosphorylation response is limited by PTEN enzyme activity and is associated with changes in PIP2 and PIP3 inositol phospholipid levels.

PTEN [2] = assay: Inositol phospholipid levels in starving Dictyostelium cells (solvent extraction, thin layer chromatography); settings: 10 micromolar, 1 hour
Description: FIG. 9. The levels of the 4 inositol phospholipids (PI, PIP, PIP2 and PIP3) in wild-type Dictyostelium cells undergoing starvation were measured by solvent extraction of cell cultures and analysis using thin layer chromatography. The effect of Cupid B-PTEN peptide treatment (10 micromolar, 1 hour) was calculated as a percentage change in the basal (untreated) levels.
The PTEN protein has a phospholipase enzymatic activity that functions to remove phosphate groups from inositol-based lipids and as such is involved with maintaining the balance between varieties of inositol phospholipids present at the cell surface. In wild-type cells undergoing starvation the inositol phospholipids with 3 and 4 phosphate groups (PIP2 and PIP3) are kept low, largely due to the action of PTEN.
We determined the effect of Cupid B-PTEN peptide on the inositol phospholipid levels in Dictyostelium cultures. Cupid B-PTEN peptide treated cells (10 micromolar, 1 hour) alters the basal levels of inositol phospholipids in Dictyostelium cells.

[3] = system: Dictyostelium cells (PTEN-null phenotype); assay: Streaming/aggregation of starved wild-type Dictyostelium cultures compared with PTEN-null mutant; settings: 10 micromolar dose
Description: FIG. 8. Cupid can transport large molecule cargo into the cell. Starved Dictyostelium cultures were plated into petri dishes in starvation buffer and visualised after 10 hours. In untreated wild-type (WT) cultures (A), cells stream together into aggregation centres, co-ordinated by cell to cell signaling.
In Dictyostelium, a genetic mutant in which the PTEN gene is absent causes marked changes in phenotype.

B1: Cupid B-PTEN peptide: SEQ ID NO: 12; His-tagged Cupid B fused to 167 amino acid C2 region (186-352) of human PTEN (protein, listed as Homo sapiens)
chain: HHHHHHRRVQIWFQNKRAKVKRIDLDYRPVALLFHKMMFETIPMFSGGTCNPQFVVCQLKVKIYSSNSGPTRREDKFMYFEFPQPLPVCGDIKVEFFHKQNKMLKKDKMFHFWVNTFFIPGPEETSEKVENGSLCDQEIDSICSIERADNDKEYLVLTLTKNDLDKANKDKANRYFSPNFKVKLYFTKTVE
modifications: His tag
notes: His-tagged Cupid B fused to 167 amino acid C2 region (186-352) of human PTEN
- initial phosphorylation response to cyclic AMP versus untreated cultures (PTEN [1]): much stronger initial phosphorylation response
- level of PIP2 relative to untreated basal levels (PTEN [2]): +75%
- level of PIP3 relative to untreated basal levels (PTEN [2]): +150%
- aggregation behaviour of wild-type cells during starvation [3]: exhibit the same distinctive behaviour as the PTEN-Null strain
